Residue numbers refer to the chain shown, from its start. Names and notes keep the numbering of the source. Values belong to the binder of their own block, whether it stands above or below them.
What was measured:
[1] = molecular target: canine IL-31 receptor alpha (IL-31RA) on canine DH-82 cells (canine); experiment: cell-based or functional assay
[2] = molecular target: T1, extracellular domain of canine IL-31RA fused to murine IgG2A Fc (canine); experiment: SPR Biacore T200, antibody captured on anti-human IgG chip, canine IL-31RA-mFc as analyte, 1:1 model
T1 construct: also called Canine IL-31RA-murine IgG2A Fc; Canine IL-31RA-mFc
T1 chain: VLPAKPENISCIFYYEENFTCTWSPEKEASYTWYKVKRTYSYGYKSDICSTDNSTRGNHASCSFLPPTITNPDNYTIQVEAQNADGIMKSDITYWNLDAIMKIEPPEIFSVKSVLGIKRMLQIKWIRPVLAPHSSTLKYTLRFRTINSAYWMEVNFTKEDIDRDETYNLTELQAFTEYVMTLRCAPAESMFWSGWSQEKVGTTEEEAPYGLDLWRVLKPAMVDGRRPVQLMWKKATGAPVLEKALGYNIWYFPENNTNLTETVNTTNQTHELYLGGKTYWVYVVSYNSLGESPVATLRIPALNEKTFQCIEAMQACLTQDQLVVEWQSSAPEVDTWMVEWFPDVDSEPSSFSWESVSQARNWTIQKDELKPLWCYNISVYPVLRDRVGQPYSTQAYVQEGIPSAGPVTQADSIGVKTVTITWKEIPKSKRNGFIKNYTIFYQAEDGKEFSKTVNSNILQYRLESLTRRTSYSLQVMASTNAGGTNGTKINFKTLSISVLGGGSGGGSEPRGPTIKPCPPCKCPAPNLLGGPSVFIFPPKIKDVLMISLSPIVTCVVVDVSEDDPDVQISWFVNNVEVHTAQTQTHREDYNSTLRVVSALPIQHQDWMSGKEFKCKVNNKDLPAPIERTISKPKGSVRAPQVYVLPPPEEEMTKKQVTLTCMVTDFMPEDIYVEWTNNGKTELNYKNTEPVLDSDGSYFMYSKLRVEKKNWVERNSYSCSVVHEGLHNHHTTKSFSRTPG
Procedure: Canine IL-31RA-murine IgG2A Fc was generated by transiently transfecting pcDNA3.4 containing Sequence 3 into GenScript HD (High Density) CHO-S cells and purified with MabSelect SuRe LX chromatography. Further purification of the recombinant protein was completed using gel filtration with TSKgel G3000SWxi chromatography. […] Antibodies were flowed over the anti-human IgG sensor chip at a concentration of 1 μg/ml in 1×HBS-EP+ (Cytiva, BR100826) for 60 seconds at a flow rate of 10 μL/min. Canine IL-31RA-mFc (100 nM, 50 nM, 25 nM, 12.5 nM, 6.25 nM, […]) solutions in 1×HBS-EP+ was flown over the sensor chips for a contact time of 120 s and a dissociation time of 600 s at a flow rate of 30 μL/min. Double reference-subtracted sensorgrams were fitted to a 1:1 binding model using Biacore T200 Evaluation software and the kinetics of binding are shown below in Table 4.

[3] = molecular target: T2, canine IL-31RA (20-308)-AviTag-His Tag, monomeric (canine); experiment: SPR Biacore T200, antibody captured on anti-dog H+L chip, monomeric canine IL-31RA (20-308) as analyte
T2 construct: Signal peptide (first 19 residues) left out; also called monomeric IL-31RA
T2 chain: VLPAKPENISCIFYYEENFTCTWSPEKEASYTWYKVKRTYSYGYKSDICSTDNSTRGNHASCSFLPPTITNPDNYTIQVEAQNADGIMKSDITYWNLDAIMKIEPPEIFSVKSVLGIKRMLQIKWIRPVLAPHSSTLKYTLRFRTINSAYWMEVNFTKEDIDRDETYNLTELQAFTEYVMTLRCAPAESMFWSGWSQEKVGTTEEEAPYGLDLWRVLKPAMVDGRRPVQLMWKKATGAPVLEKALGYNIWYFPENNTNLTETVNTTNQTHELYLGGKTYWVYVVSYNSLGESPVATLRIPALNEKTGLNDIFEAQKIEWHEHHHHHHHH
Procedure: (§1) The antibody was captured using a CM5 Series S chip amine coupled with an anti-dog H+L antibody (Jackson Immunoresearch). Canine IL-31RA-mFc (100 nM, 50 nM, 25 nM, 12.5 nM, 6.25 nM, 3.625 nM) solutions in 1×HBS-EP+ was flown over the sensor chip for a contact time of 120 s and a dissociation time of 600 s at a flow rate of […]. Double reference-subtracted sensorgrams were fitted to a 1:1 binding model using Biacore T200 Evaluation software. The canine IL-31RA antigen was both a dimer and aggregated so there were avidity effects with the measured affinities. […] Following the initial results with the single variants, a heavy chain containing the W53F variant and the M118I variant was synthesized and subcloned into pcDNA 3.4 (SEQ ID NO:18). The same methods as described above for expression and purification of the variant along with measuring the relative affinity were used to determine the relative affinity of the W53F/M118I heavy chain variant combined with the S95A light chain and the N94Q light chain variants.
To reduce the avidity effects from using the canine IL-31RA-mouse Fc construct in SPR experiments, a monomeric construct was generated which contains amino acids 20-308 of the canine IL-31IRA extracellular domain (SEQ ID NO:28). This construct has the AviTag sequence ([…] (SEQ ID NO:51)) followed by an 8×His(SEQ ID NO:52) tag to facilitate purification. GenScript HD (High Density) CHO-S cells were transiently transfected with pcDNA 3.4 containing Sequence 28 and purified with HisTrap FF chromatography. Further purification of the recombinant protein was completed using gel filtration with Cytiva HiLoad 26/600 Superdex chromatography to isolate the monomeric IL-31RA species. […] These clones were evaluated in an SPR experiment using the same conditions as described for the caninized clones except the analyte is canine IL-31RA (20-308).

[4] = molecular target: T1, extracellular domain of canine IL-31RA …; experiment: SPR Biacore T200, antibody captured on anti-dog H+L chip, canine IL-31RA-mFc as analyte; relative affinity scale: *** 3 pM-100 pM, ** 101 pM-1 nM, * 1.1 nM-20 nM (avidity)
Procedure: as §1, with “The different heavy and light chain combinations were co-transfected into ExpiCHO cells using the ExpiCHO transfection kit (ThermoFisher; Cat. #A29133). Seven days following the transient transfection, the IgG in the conditioned medium was purified using MabSelect SuRe chromatography. The antibodies were buffer-exchanged into PBS, pH 7.4. The relative affinity of the variants was determined by SPR on a Biacore T200. The antibody” for “The antibody”

[5] = molecular target: T1, extracellular domain of canine IL-31RA …; experiment: as above
Procedure: as §1, with “Seven days following the transient transfection, the IgG in the conditioned medium was purified using MabSelect SuRe chromatography. The antibodies were buffer-exchanged into PBS, pH 7.4. The relative affinity of the variants was determined by SPR on a Biacore T200. The antibody” for “The antibody”

binding result [5]: binds
B4: 186-95 heavy chain S57A variant with wild-type light chain (antibody, V domains shown)
VH: EVQLVESGGDLVKPGGSLRLSCVASGFTFSSYAMSWVRQAPGKGLQWVSAISGSGNATYYADAVKGRFTISRDNAKNTLYLQMNSLRAEDTAVYYCATQVVYYFKMDVWGQGTLVTVSS
VL: EIVMTQSPGSLAGSAGESVSINCKSSQSVSSNLAWYQQKPGERPKLLIYGASTRASGVPARFSSSGSGTDFTLTINNLQAEDVGDYYCQQYYNWPPFTFGQGTKLEIKR
notes: Canine IgGB/kappa; signal peptides left out; also called S57A / Wild-type

binding result [5]: binds
B5: 186-95 wild-type heavy chain with light chain W94F variant (antibody, V domains shown)
VH: B4 VH with A57S
VL: B4 VL with W94F
notes: Canine IgGB/kappa; signal peptides left out; also called Wild-type / W94F

binding result [5]: binds
B6: 186-95 wild-type heavy chain with light chain W94Y variant (antibody, V domains shown)
VH: B4 VH with A57S
VL: B4 VL with W94Y
notes: Canine IgGB/kappa; signal peptides left out; also called Wild-type / W94Y

binding result [5]: binds
B8: caninized antibody clone 186-95 (antibody, V domains shown)
VH: B4 VH with A57S
VL: B4 VL
notes: Canine IgGB and canine kappa constant domains

Second part, the binder before the results:

B1: Clone 109 (human antibody 109, human IgG1) (antibody, V domains shown)
VH: EVQLVESGGGVVRPGGSLRLSCAASGFTFDDYGMSWVRQIPGRGLEWVSGINWAGGTIGYADSVKGRFTVSRDDANNSLYLQMNSLRAEDTALYLCARESPLRLGDLGGDYFYYYYYMDVWGKGTTVTVSS
VL: EIVLTQSPGTLSLSPGERATLSCRASQSVSSRYLVWYQQKPGQAPRLLIYGTSSRATGIPDRFSGSGSGTDFTLTISRLEPEDFAVYYCQQYDNSPRTFGQGTKVEIKR
IC50 (read off the curve) [1]: ~4 nM
Kd [2]: 0.506 nM
koff [2]: 0.000108 s⁻¹
kon [2]: 214000 M⁻¹ s⁻¹

B2: 109-49_IA (109-49 containing the M118I and S95A variants) (antibody, V domains shown)
VH: EVQLVESGGDLVKPGGSLRLSCVASGFTFDDYGMSWVRQAPGKGLQWVSGINWAGGTIGYADAVKGRFTISRDNARNTVYLQMNSLRAEDTAVYYCARESPLRLGDLGGDYFYYYYYIDVWGQGTLVTVSS
VL: EVVMIQTPLSLSVSPGEPASISCRASQSVSSRYLVWYLQKPGQSPQLLIYGTSSRATGVSDRFSGSGSGTDFTLRISRVEAEDVGVYYCQQYDNAPRTFGQGTKVEIKR
notes: Canine IgGB/kappa; signal peptides left out; also called M118I / S95A
Kd [3]: 1.31 nM
koff [3]: 7.09e-05 s⁻¹
kon [3]: 54400 M⁻¹ s⁻¹
relative affinity (apparent KD by SPR) [4]: 0.003 to 0.1 nM

B3: Clone 186 (human antibody 186, human IgG1) (antibody, V domains shown)
VH: EVQLLESGGGLIQPGGSLRLSCGASGFTFSSYAMSWVRQAPGKGLEWVSAISGSGNSTYYADSVKGRFTISRDNSKNTLYLQMNSLRAEDTAVYYCATQVVYYFKMDVWGKGTTVTVSS
VL: EIVMTQSPATLSVSPGERATLSCRASQSVSSNLAWYRQKPGQAPRLLIYGASTRATGIPARFSGSGSGTEFTLTISSLQSEDFAVYYCQQYYNWPPFTFGPGTKLDIKR
IC50 (read off the curve) [1]: ~10 nM
Kd [2]: 1.81 nM
koff [2]: 0.000118 s⁻¹
kon [2]: 65200 M⁻¹ s⁻¹

B7: 186-95_QLF (186-95 containing the N56Q, M106L, and W94F variants) (antibody, V domains shown)
VH: B4 VH with N56Q, A57S, M106L
VL: B4 VL with W94F
notes: Canine IgGB/kappa; signal peptides left out; also called N56Q-M106L / W94F
Kd [3]: 2.31 nM
koff [3]: 0.000161 s⁻¹
kon [3]: 69800 M⁻¹ s⁻¹
binding result [5]: binds
